Test results as given in PMC3633684.

Substrate: CC(=O)Oc1ccc([N+](=O)[O-])cc1
Test: purified protein
Format: biochemical, Caulobacter vibrioides
Details: 40 mM phosphate buffer pH 7.4, 37 °C, 0.2 μM HfsH

B1: HfsH (Caulobacter vibrioides CB15) (protein)
chain: MPMEFEKVDAYEPDRSLKGKLRRRLIRLAHRRPAKVALERPMVSFSFDDAPATACEAGARALEARGLRGTYYFAAGLTGRDGPMGRYATGEDARRLHEAGHEIACHTYSHLDCGQSSQTETLADVDRNAESLAAWGAGDPVSFAYPYGDVAAPAKTALSGRFKTLRALHHGLITDGADLNQTPAVGIEGEDGETVAKAWLDKAKARKAWLILYTHDVAGQPSQWGCTTEALERLIDRALADGFDVVTVAEGSRRIGL
- Km: 11.74 mM
